Experimental data reported in paper PMC6615639, “A broadly neutralizing germline-like human monoclonal antibody against dengue virus envelope domain III” (PLoS Pathogens, 2019).

Assays:
[1] = biological target: T1, DENV-4 envelope protein domain III (DIII), fused with IgG1 Fc and a C-terminal Avi-tag (Dengue virus type 4, strain ; …, UniProt P09866); experiment: SPR; conditions: both partners purified
T1 construct: also called DENV-4 DIII; DENV4 DIII

[2] = biological target: T2, DENV-2 envelope protein domain III (DIII), fused with IgG1 Fc and a C-terminal Avi-tag (Dengue virus type 2, strain ; …); experiment: SPR; conditions: both partners purified
T2 construct: also called DENV-2 DIII; DENV2 DIII
T2 chain: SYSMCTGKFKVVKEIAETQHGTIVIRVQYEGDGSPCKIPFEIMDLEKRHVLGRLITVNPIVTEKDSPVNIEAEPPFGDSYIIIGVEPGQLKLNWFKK

[3] = biological target: T3, DENV-1 envelope protein domain III (DIII), fused with IgG1 Fc and a C-terminal Avi-tag (Dengue virus type 1, strain ; …, UniProt B6DXD2); experiment: SPR; conditions: both partners purified
T3 construct: also called DENV-1 DIII; DENV1 DIII

[4] = biological target: T4, DENV-3 envelope protein domain III (DIII), fused with IgG1 Fc and a C-terminal Avi-tag (Dengue virus type 3, strain ; …, UniProt Q99D35); experiment: SPR; conditions: both partners purified
T4 construct: also called DENV-3 DIII; DENV3 DIII

[5] = biological target: T1, DENV-4 envelope protein domain III …; experiment: cell-based or functional assay
[6] = biological target: T2, DENV-2 envelope protein domain III …; experiment: cell-based or functional assay
[7] = biological target: T3, DENV-1 envelope protein domain III …; experiment: cell-based or functional assay
[8] = biological target: T4, DENV-3 envelope protein domain III …; experiment: cell-based or functional assay

B1: m366.6 scFv-Fc (scFv, V domains shown)
VH: QLQLQESGGGLVQPGGSLRLSCAASGFTFSSHSMNWIRQAPGKRLEWVSSISSSSSYIYYADSVRGRFTISRDNAKNSLYLQMDSLRAEDTAVYYCARYMAGIWTFDIWGQGTMVTVSS
VL: SYELTQPPSVSVAPGKTASISCGGDNIGRKSVHWFQQKPGQAPVLVLYDDSDRPSGIPARFSGSNSGNTATLTISGVEAGDEADYYCQVWARSSDLPNWVFGGGTKLTVL
notes: also called mAb m366.6
Kd [1]: 1.9 nM
koff [1]: 0.00062 s⁻¹
kon [1]: 330000 M⁻¹ s⁻¹
Kd [2]: 0.29 nM
koff [2]: 0.00025 s⁻¹
kon [2]: 960000 M⁻¹ s⁻¹
Kd [3]: 0.78 nM
koff [3]: 0.00025 s⁻¹
kon [3]: 320000 M⁻¹ s⁻¹
Kd [4]: 0.27 nM
koff [4]: 0.00018 s⁻¹
kon [4]: 660000 M⁻¹ s⁻¹
other [5]: 0.36 µg/mL
other [6]: 2.4 µg/mL
other [7]: 22 µg/mL
other [8]: 0.85 µg/mL
